Assay results published in the supplement of paper PMC12636428.

test system: Saccharomyces cerevisiae; test: transcriptional activation domain activity (GFP:mCherry ratio, weighted mean of sorted bins, harmonized to initial dataset scale) (arbitrary fluorescence ratio units); higher = stronger transcriptional activation; conditions: beta-estradiol 1 µM; induction time 4 h
In short: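 After a 1:5 dilution into SC with 1 uM beta-estradiol and 4 hours at 30 °C, yeast diploids carrying a GFP reporter and URA3-integrated barcoded tiles were sorted into 8 bins by GFP:mCherry ratio. The tiles were fused to an estradiol-inducible synthetic transcription factor. Barcodes were sequenced, tiles below 50 reads were discarded, and activation activity was taken as the read-weighted mean of bin median fluorescence, averaged across barcodes and linearly mapped onto the initial dataset scale.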

Compared with “QLQCIPIFGNFVVLILCLKYIYSCNHFGSVTSHHTFHMLAVVLSTFFISLIPV”, “QLQPFSESQSQNKFDYDMFFRDSSKEGNNLFGEFLEDDDDDKKAANMSDDESS” is higher in “transcriptional activation domain activity” value: 43100 for the first, 43800 for the second.

First: QLRLFQFDRLVEELLPLVHTHFIRKGIKSSMFASQWFMTLFSYRFPLSLVYRV
Second: QLTAQQLIENAIESGVVDLETLDLPPFLSLDGLPPASSSAAVAASEQIDICPS
The “transcriptional activation domain activity” value of the first is lower: 66200 for the first, 133000 for the second.

Going from “QLTRGNWSDLFFLFIFLWIVLFFFLLHWSWAWLLVFVLSICSSGLLGAILFFF” to “QLVIAVLLLHASAMFTKRVEIPQLKLETAGKLFPCVFVNIVGLVFNTLCLRDV”, the “transcriptional activation domain activity” value rises from 27200 to 43300.

Compared with “QLYCILNPPHLFVFPPKEISSVLFLVGVVHYVLYGLYYMLLLYNLFRFGLLTY”, “QLYSNNFQQSYPNGMVPGYYPKMPYNPMGGDPLLDQAFYGADDFFFPPEGCDN” is higher in “transcriptional activation domain activity” value: 45700 for the first, 77800 for the second.

First: QMLNPLEKILLSLASIVLSSRVSRNLFVLYALGLHFIVLFTLYSVVYVFIFCS
Second: QNAIELTLLCITLIASDTLLLLRVSALCADRSSGVWGISYFYIIRRLLWGVYF
The “transcriptional activation domain activity” value of the first is lower: 37500 for the first, 68700 for the second.

Compared with “QNESERLGPPKKKRRRQALSCTECKRRKIKCDRTHPCGPCARRSEPEKCQWHV”, “QNLFGYLERSLNRSTKLRATGMLKEGMVRIFIQKIEGSPFEVTMQFARKFFTA” is higher in “transcriptional activation domain activity” value: 27600 for the first, 35900 for the second.

First: QPIASCVVKVNFGMISNDSNFCGLVSGIIYVYMGLGGAFMLLVAVCVIKVRYT
Second: QPPPPPGRKRKKAENGEPSTPAEPRRLRRSHEACARCRSKKIKVSTQASAVIL
The “transcriptional activation domain activity” value of the first is higher: 67700 for the first, 53600 for the second.

Compared with “QPQSPYQQAVLPYATIPNSNFQPSSFPVMAVMPPEVQFDGSFLNTLHPHTELP”, “QPSAFGQTNTATNAFGQPQQQSAFGSTPTTGAFGSTNTAFGQNRPAFGSTTTP” is lower in “transcriptional activation domain activity” value: 34400 for the first, 23600 for the second.

Going from “QPSQVPQEDQPEHEPERKRRPGRPRGSKNRKPRADSAKQPQQQQQQQQQPHPQ” to “QQAGRTMSEGKKKRNTGKEEGEEGDEERKRKRRAEKKRKQRKRRMSKSTGEEE”, the “transcriptional activation domain activity” value falls from 59500 to 31700.

Compared with “QQAHHNVSGPTSKTLLPFLPLHKLMLSNILSPNVRLLFPPLLPLQLSWILWAL”, “QQEGLKAELPHDFLFQHGTDDTMYNLTDDLSSSLSSSINSDMMTPNTYSSSFS” is higher in “transcriptional activation domain activity” value: 61800 for the first, 65000 for the second.

First: QQGGGAAASSSGAAQTTSDHVHKDEKEEDKDRDKKKEEEEKEKRKKRREKNKK
Second: QQLGLWIFTWCACNFFLLFFVLKHSIHQKDINILIANVLDIWGLIDPQQILVK
The “transcriptional activation domain activity” value of the first is lower: 23700 for the first, 61600 for the second.

First: QQLRIKIDSWSYQYGVDEVIRNRNRNLLIQMYMLLPPARFWLYMKRVRIMLLN
Second: QQPITYRKTIYDFFSWFLSLGFLNMMVPCFDLLYISRILVVWREVYYCHLIIA
The “transcriptional activation domain activity” value of the first is higher: 66500 for the first, 58100 for the second.

Going from “QQQEEEEKKKEVGGEAEGYEERVINMGAKNSAPMKAGDRIIICTPGGGGWGKS” to “QQQQQQQQQQQQQQQQQSLDTLLHHYQSLLSKSDNAIAFDDNVSNSADHNGSN”, the “transcriptional activation domain activity” value rises from 9620 to 22600.

Compared with “QQTGKGKIHRQYALVVVGNGDGLVGYGEGKDEELPRASDKAFAAAVRNMDHVE”, “QREARKEHIKSLVAPGLPFLSIDTYKDLNDKWVLKGVFRGLLVLRGLAHHLRT” is higher in “transcriptional activation domain activity” value: 43700 for the first, 63100 for the second.

First: QRGKPYDLHSSDGSSEKKRTEKVGLSAGKQHMWILLRPKAAMWAVCVVLASPE
Second: QRGVGTGVLKVGVDGGGHDEERIRWEAEMVGRERNWVLKKFLGQAISSQLDHA
The “transcriptional activation domain activity” value of the first is lower: 38700 for the first, 44800 for the second.

Compared with “QRIIIGSKLILLTRSLLICLLWSLKMAVLDLLAKLMLNMPFERKLIYTLWAIL”, “QRKLLWMCVHNIESLVCLGTGRGISSKITDNMLGMLISTKIFNLAEAGLRLEI” is higher in “transcriptional activation domain activity” value: 41600 for the first, 67000 for the second.

Compared with “QRMGSMVQRVQSTCRKCRGEGKILLEKDRCKKCAGRGIVKASKKLEVHVDKGM”, “QRNDARLIPGIKYLQLVLGRVRCCREIIAILARNGHRLPKGMLPTLVRLWLLM” is higher in “transcriptional activation domain activity” value: 20000 for the first, 35800 for the second.

Going from “QRNPGSRAVIVKPILHVYLEGAPGSLTTRNDSVVGLLVVQLSISLANALAMKA” to “QRTNEDLDVDYVPYDHMGISFWDHLDPSRIAVPSHHNIFRIVVWLFFLVVYSQ”, the “transcriptional activation domain activity” value rises from 22900 to 53700.

Going from “QSFQTLLLILFLPPPLISPFLYVTFFFFPFFPFFFALPRFWDRWALSAFFFLL” to “QSGFNIHLKDAGAGAHMELLTLDQILMFFQGLNNLNLLYFWGVGFDRLAILAF”, the “transcriptional activation domain activity” value rises from 49200 to 59200.

Going from “QSLENQTTETIDVSPDKHRLLIGRGGETRRAIESKFKVQLDIPKQTATGAARN” to “QSLNFDLQTNSYYSNARGSDPSSYAIEGEYKTLATDDLGNILNLNYGETNEVI”, the “transcriptional activation domain activity” value rises from 64100 to 80000.

Compared with “QSNWVEGFSTHHEPFRPHKRRIKSVIDCSERTAVLVADLIGGLPCVVELKPKW”, “QSPPPAKKAKTAAGGRGKKVKPEPESGSEAEAKPEPVASKRGRVKKPAKAEQE” is lower in “transcriptional activation domain activity” value: 64400 for the first, 14800 for the second.

Compared with “QSPSISMEPVSINETGSAYTTTNTALNDIDIPFSINELNELYKQVSSHNSHSQ”, “QSQAPARKKGAGGKEGKKGKGGKEGKEKVEKESKKKRKAEAEVVVGDEAAAAA” is lower in “transcriptional activation domain activity” value: 84100 for the first, 33800 for the second.

Compared with “QSQPAKQPAKQPATKKSSKSKGSKKSKGSKGKGSRGSKSKAKGSRSKAKGKAH”, “QTAVDNMNEQDLDGRNVRVNMANERPASSGGYGGGRGGGRGGFGGGRGRGGYG” is higher in “transcriptional activation domain activity” value: 23600 for the first, 29600 for the second.

Going from “QTDPEKKRVWENKILETLERRPSKKCDYILLRSEQLVGTALIVLVKSELTSVI” to “QTIPKNQFASRVWTYMDPEVSRHLIDHYLGSIDLSRLELAVLALKCLYSRHTT”, the “transcriptional activation domain activity” value falls from 54900 to 53900.

Going from “QTPTDPESYWSDNRCKHSDCQELSPFASVFDLIDHYDHTHAFIPETLVKYSYI” to “QTRQDEDHWQRVRELENQSSLYYLPIHEETPFFIDLIPNGFYLETKRSADNLF”, the “transcriptional activation domain activity” value rises from 17600 to 92000.

Compared with “QTTDLVQWLAMPCNLPWVVYVLDRVRNLLRFVIVLSEVEITEDLKRRIMAIYT”, “QTTLRAVVSSKEAGVIIGKGGKNVADLRDETGVKAGVSKVVQGVHDRVLTITG” is lower in “transcriptional activation domain activity” value: 77400 for the first, 51200 for the second.

Going from “QTVNFGWSDLPHDVYTHLSSDFENPFYFDGIFPTLVDYSPLIVSPPNFLTLEP” to “QTWGVYKRTGGINMYIVSIWVNWFANSIIGILSWLYLWGTIETSFWFFFFLLL”, the “transcriptional activation domain activity” value falls from 138000 to 75500.

First: QVCFLGLSFRCVIGIDQMRCRSGYCSFVSLLYTLGNLSGVFSGIFAYAFSHLN
Second: QVCTLLGASGGSSFVRGGSYLQGGYGLNTADLWRRNFLVLVGWILFFWLLQTI
The “transcriptional activation domain activity” value of the first is higher: 66500 for the first, 54800 for the second.

Compared with “QVGRKANQKEEKETEKERTEKDKKQGRVGVGGVAKTAIVAGAWCYVVGVVAEL”, “QVKAKTARKSSRAATKKSSAKRRRDESSEESSDEDESGGERVSRGRGGAVRDK” is higher in “transcriptional activation domain activity” value: 34600 for the first, 36000 for the second.

First: QVKGNAATLVVRSLALNADLCKLVECLWFLDRYVLVEGKHWAAALPRMKNLWF
Second: QVLVLLLILLVFLVFQFLQMLSFLLKLPFVLKLEILLVLLVTKLWVFLFHLLL
The “transcriptional activation domain activity” value of the first is lower: 32200 for the first, 41500 for the second.

With “QVPEQVPEQAPEPEKVAEEIVKEEVKKPEEPKAPTPSPAPVAAPRAAAPPAAE” the “transcriptional activation domain activity” value was 29500.
